B1: Cullin-3 (Caenorhabditis elegans), Q17391 (parent)
chain: MSGRSGNGGQQKMRIRPFMATIDEQYVTQTWELLKRAIQEIQRKNNSGLSFEELYRNAYTMVLHKHGERLYNGLKDVIQDHMASVRIRIIESMNSGSFLETVAESWADHTVAMVMIRDILMYMDRIYVAQNNHVLPVYNLGLDAYRTEILRQNGIGDRIRDALLELIKLDRKSNQINWHGIKNACDMLISLGIDSRTVYEDEFERPLLKETSDYYRDVCKNWLSGDNDACFYLAQVEIAMHDEASRASRYLDKMTEAKILQVMDDVMVAEHIQTIVYMQNGGVKFMLEHKKIEDLTRIFRIFKRIGDSVTVPGGGLKALLKAVSEYLNETGSNIVKNEDLLKNPVNFVNELLQLKDYFSSLLTTAFADDRDFKNRFQHDFETFLNSNRQSPEFVALYMDDMLRSGLKCVSDAEMDNKLDNVMILFRYLQEKDVFEKYFKQYLAKRLLLDKSCSDDVEKALLAKLKTECGCQFTQKLENMFRDKELWLTLATSFRDWREAQPTKMSIDISLRVLTAGVWPTVQCNPVVLPQELSVAYEMFTQYYTEKHTGRKLTINTLLGNADVKATFYPPPKASMSNEENGPGPSSSGESMKERKPEHKILQVNTHQMIILLQFNHHNRISCQQLMDELKIPERELKRNLQSLALGKASQRILVRKNKGKDAIDMSDEFAVNDNFQSKLTRVKVQMVTGKVESEPEIRETRQKVEDDRKLEVEAAIVRIMKARKKLNHNNLVAEVTQQLRHRFMPSPIIIKQRIETLIEREYLARDEHDHRAYQYIA
partner: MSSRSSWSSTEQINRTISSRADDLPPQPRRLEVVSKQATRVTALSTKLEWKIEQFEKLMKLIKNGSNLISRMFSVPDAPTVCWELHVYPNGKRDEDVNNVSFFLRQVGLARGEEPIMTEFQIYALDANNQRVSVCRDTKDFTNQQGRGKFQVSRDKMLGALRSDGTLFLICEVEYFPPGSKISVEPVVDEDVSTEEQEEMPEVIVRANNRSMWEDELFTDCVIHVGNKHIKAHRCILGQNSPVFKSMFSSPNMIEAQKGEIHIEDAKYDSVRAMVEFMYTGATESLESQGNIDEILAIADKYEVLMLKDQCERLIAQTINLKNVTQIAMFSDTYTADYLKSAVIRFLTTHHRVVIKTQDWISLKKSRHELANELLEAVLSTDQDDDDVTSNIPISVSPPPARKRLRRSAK
B2: Cullin-3 (Caenorhabditis elegans), Q17391 (parent)
chain: B1 chain
partner: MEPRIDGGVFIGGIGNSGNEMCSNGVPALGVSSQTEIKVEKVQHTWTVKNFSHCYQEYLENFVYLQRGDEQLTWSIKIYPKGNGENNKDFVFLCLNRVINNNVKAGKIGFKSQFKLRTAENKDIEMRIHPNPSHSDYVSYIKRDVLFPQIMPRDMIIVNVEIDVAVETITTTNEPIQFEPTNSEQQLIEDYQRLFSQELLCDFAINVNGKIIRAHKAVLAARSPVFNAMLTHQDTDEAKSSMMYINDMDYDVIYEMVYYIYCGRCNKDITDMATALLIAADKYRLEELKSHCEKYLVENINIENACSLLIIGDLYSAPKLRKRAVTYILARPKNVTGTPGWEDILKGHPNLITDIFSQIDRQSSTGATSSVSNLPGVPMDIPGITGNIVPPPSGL
B3: Meiotic spindle formation protein mei-1 (Caenorhabditis elegans), P34808-2 (parent)
chain: MNGDVQSVIRGYLERAQVAKTMSDAGRWNEAGDLLRQLMTDVKSCKISASNRDEHDARNTFLRALEANLKLVQQNVRDEDDLHEAMTRQSGSPEPPADPDVWSKPSPPLPSSSKFGATKKGVGAAGPRPREISKSTSSMSTNPADVKPANPTQGILPQNSAGDSFDASAYDAYIVQAVRGTMATNTENTMSLDDIIGMHDVKQVLHEAVTLPLLVPEFFQGLRSPWKAMVLAGPPGTGKTLIARAIASESSSTFFTVSSTDLSSKWRGDSEKIVRLLFELARFYAPSIIFIDEIDTLGGQRGNSGEHEASRRVKSEFLVQMDGSQNKFDSRRVFVLAATNIPWELDEALRRRFEKRIFIPLPDIDARKKLIEKSMEGTPKSDEINYDDLAARTEGFSGADVVSLCRTAAINVLRRYFRYDTKSLRGGELTAAMESLKAELVRNIDFEAALQAVSPSAGPDTMLKCKEWCDSFGAM
partner: B2 partner
B4: Protein maternal effect lethal 26 (Caenorhabditis elegans), Q94420 (parent)
chain: B2 partner
partner: B3 chain

Variants of: B1
Conditions: with bat42_caeel bath-42, P34371

Variant | effect of a mutation on the interaction
E52A | decreasing interaction
L49A | decreasing interaction

Variants of: B2
Conditions: with mel26_caeel mel-26, Q94420

Variant | effect of a mutation on the interaction
E52A | decreasing interaction
L49A | decreasing interaction

Variants of: B3
Conditions: with mel26_caeel mel-26, Q94420

Variant | effect of a mutation on the interaction
P99L | decreasing interaction

Variants of: B4
Conditions: with mei-1, P34808-2

Variant | effect of a mutation on the interaction
C94Y | decreasing interaction
